The values that follow come from paper PMC3508906 (Channels, 2012).

The data set concerns the molecule itself. Kind of data set: SEC-MALS. On the technique in general: SEC sorts molecules by how far they enter the pores of the column.

B1: YbiO, C-terminally His-tagged (pYbiO) (natural protein, E. coli K12 MG1655, UniProt P75783 19-741, looked up)
chain: VSIPGVTTTTTTDSTTEPAPEPDIEQKKAAYGALADVLDNDTSRKELIDQLRTVAATPPAEPVPKIVPPTLVEEQTVLQKVTEVSRHYGEALSARFGQLYRNITGSPHKPFNPQTFSNALTHFSMLAVLVFGFYWLIRLCALPLYRKMGQWARQKNRERSNWLQLPAMIIGAFIIDLLLLALTLFVGQVLSDNLNAGSRTIAFQQSLFLNAFALIEFFKAVLRLIFCPNVAELRPFTIQDESARYWSRRLSWLSSLIGYGLIVAVPIISNQVNVQIGALANVIIMLCMTVWALYLIFRNKKEITQHLLNFAEHSLAFFSLFIRAFALVWHWLASAYFIVLFFFSLFDPGNSLKFMMGATVRSLAIIGIAAFVSGMFSRWLAKTITLSPHTQRNYPELQKRLNGWLSAALKTARILTVCVAVMLLLSAWGLFDFWNWLQNGAGQKTVDILIRIALILFFSAVGWTVLASLIENRLASDIHGRPLPSARTRTLLTLFRNALAVIISTITIMIVLSEIGVNIAPLLAGAGALGLAISFGSQTLVKDIITGVFIQFENGMNTGDLVTIGPLTGTVERMSIRSVGVRQDTGAYHIIPWSSITTFANFVRGIGSVVANYDVDRHEDADKANQALKDAVAELMENEEIRGLIIGEPNFAGIVGLSNTAFTLRVSFTTLPLKQWTVRFALDSQVKKHFDLAGVRAPVQTYQVLPAPGATPAEPLPPGEPTL
Regarding B1, the stoichiometry N (commonly the number of molecules, sites or subunits per partner or assembly) amounted to 7.

B2: YnaI, C-terminally His-tagged (pYnaI) (natural protein, E. coli, UniProt P0AEB5 1-343, looked up)
chain: MIAELFTNNALNLVIIFGSCAALILMSFWFRRGNRKRKGFLFHAVQFLIYTIIISAVGSIINYVIENYKLKFITPGVIDFICTSLIAVILTIKLFLLINQFEKQQIKKGRDITSARIMSRIIKITIIVVLVLLYGEHFGMSLSGLLTFGGIGGLAVGMAGKDILSNFFSGIMLYFDRPFSIGDWIRSPDRNIEGTVAEIGWRITKITTFDNRPLYVPNSLFSSISVENPGRMTNRRITTTIGLRYEDAAKVGVIVEAVREMLKNHPAIDQRQTLLVYFNQFADSSLNIMVYCFTKTTVWAEWLAAQQDVYLKIIDIVQSHGADFAFPSQTLYMDNITPPEQGR
With B2, the “stoichiometry N” value was 7.
